The values below come from patent publication EP1073891B1, “METHOD OF PREDICTING RECEPTOR MODULATING ACTIVITY” (Duke University, priority 1998, dated 1999).

Values joined by “and” are separate entries in the source; they are usually repeats but may differ in a detail not shown here. Equal entries are not always repeated.

In one assay the target is T1, ERα (Homo sapiens, UniProt P03372).
T1 sequence (P03372 1-595): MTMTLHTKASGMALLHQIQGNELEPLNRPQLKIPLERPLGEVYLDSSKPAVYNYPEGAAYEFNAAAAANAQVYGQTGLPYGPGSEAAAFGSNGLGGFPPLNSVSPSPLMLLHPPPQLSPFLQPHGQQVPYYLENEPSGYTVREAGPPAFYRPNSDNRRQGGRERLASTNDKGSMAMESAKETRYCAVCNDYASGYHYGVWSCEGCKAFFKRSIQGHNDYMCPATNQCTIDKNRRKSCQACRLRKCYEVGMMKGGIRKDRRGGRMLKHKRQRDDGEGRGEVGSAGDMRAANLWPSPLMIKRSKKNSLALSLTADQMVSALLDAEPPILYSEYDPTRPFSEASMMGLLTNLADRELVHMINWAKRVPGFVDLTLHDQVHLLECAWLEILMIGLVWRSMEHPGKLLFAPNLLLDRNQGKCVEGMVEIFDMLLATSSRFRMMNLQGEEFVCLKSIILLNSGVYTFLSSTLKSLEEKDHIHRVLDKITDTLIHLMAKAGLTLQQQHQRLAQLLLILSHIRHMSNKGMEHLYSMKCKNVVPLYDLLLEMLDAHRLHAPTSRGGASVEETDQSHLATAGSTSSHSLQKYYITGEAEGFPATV
The assay can be described thus: Phage ELISA / fingerprint on ER immobilized on biotinylated ERE (Examples 2.3-2.5). Format: binding. On the set-up: purchased PanVera Corporation, Madison, WI; key to binding activity, ERα and buffer / binding activity, ERα and estradiol / binding activity, ERα and tamoxifen / binding of peptide, Class Specific Fingerprint on ERα: semiquantitative scale of 0 to 7+; 1+: semiquantitative scale of 0 to 7+; 2+: semiquantitative scale of 0 to 7+; 3+: semiquantitative scale of 0 to 7+; 4+: semiquantitative scale of 0 to 7+; 5+: semiquantitative scale of 0 to 7+; 6+: semiquantitative scale of 0 to 7+; semiquantitative scale of 0 to 7+. Conditions: for binding activity, ERα and estradiol: ERα and estradiol (1 µM); for binding activity, ERα and tamoxifen: ERα and tamoxifen (4-OH tamoxifen, 1 µM).

The target in another assay is ERβ (Homo sapiens, UniProt Q92731). Described as above. In kind it is binding. On the set-up: purchased PanVera Corporation, Madison, WI; key: semiquantitative scale of 0 to 7+; 1+: semiquantitative scale of 0 to 7+; 2+: semiquantitative scale of 0 to 7+; 3+: semiquantitative scale of 0 to 7+; 4+: semiquantitative scale of 0 to 7+; 5+: semiquantitative scale of 0 to 7+; 6+: semiquantitative scale of 0 to 7+; semiquantitative scale of 0 to 7+. The settings on record: for binding activity, ERβ and Estradiol: ERβ and Estradiol (1 µM); for binding activity, ERβ and tamoxifen: ERβ and tamoxifen (4-OH tamoxifen, 1 µM).

Setting [1] is: 4-OH Tamoxifen present during binding.
Setting [2] is: 16a-OH Estrone present during binding.
Where [3] appears, read: Clomiphene present during binding.
Setting [4] is: Estradiol present during binding.
The mark [5] stands for this setting: ICI 182,780 present during binding.
Setting [6] is: Nafoxidine present during binding.
The mark [7] stands for this setting: Premarin present during binding.
The mark [8] stands for this setting: Progesterone present during binding.
[9] abbreviates: Raloxifene present during binding.

Chain of ERβ (Q92731 whole entry): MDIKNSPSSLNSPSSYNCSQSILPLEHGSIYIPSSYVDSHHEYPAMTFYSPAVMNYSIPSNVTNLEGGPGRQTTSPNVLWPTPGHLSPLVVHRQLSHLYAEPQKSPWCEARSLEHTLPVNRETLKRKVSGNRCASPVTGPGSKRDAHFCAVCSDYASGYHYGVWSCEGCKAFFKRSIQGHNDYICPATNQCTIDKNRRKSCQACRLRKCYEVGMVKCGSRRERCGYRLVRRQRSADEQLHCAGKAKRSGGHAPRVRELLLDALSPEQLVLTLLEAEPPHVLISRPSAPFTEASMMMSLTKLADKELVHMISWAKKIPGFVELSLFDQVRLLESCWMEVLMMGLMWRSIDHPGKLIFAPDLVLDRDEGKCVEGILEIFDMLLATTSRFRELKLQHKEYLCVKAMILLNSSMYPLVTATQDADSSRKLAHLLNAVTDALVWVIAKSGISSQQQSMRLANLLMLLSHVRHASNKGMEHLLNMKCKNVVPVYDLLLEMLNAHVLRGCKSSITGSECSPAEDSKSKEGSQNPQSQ

For the substance HSWLGPWRLSSIDLGG [Peptide 24b-β], in the assay with ERα, the “binding activity, ERα and buffer” value is given as 2+; the “binding activity, ERα and estradiol” value is recorded as 2+; the “binding activity, ERα and tamoxifen” value is 3+. In the assay with ERβ, the “binding activity, ERβ and Estradiol” value was 7+; the “binding activity, ERβ and buffer” value is recorded as 7+; the “binding activity, ERβ and tamoxifen” value was 7+.
Turning to HSYSSHPLLLSYLWGG [Peptide 23b-β], in the assay with ERα, the “binding activity, ERα and buffer” value is listed as 3+; the “binding activity, ERα and estradiol” value is 6+ and 3+; the “binding activity, ERα and tamoxifen” value was 3+. Further, in the assay with ERβ, the “binding activity, ERβ and Estradiol” value is 7+ and 6+; the “binding activity, ERβ and buffer” value was 7+; the “binding activity, ERβ and tamoxifen” value is 3+ and 7+.
With “S A A P R T I S H Y L M G G (SAAPRTISHYLMGG) [#48 ER]”, the “binding of peptide, Class Specific Fingerprint on ERα” value (shortened to “binding of peptide … on ERα”) was 1+ with ERα (setting [1]); 2+ in the assay with ERα (setting [2]); 1+ in the assay with ERα (setting [3]); 2+ with ERα (DES present during binding); 2+ with ERα (setting [4]); 4+ with ERα (Estriol present during binding). The “binding of peptide … on ERα” value with ERα (setting [5]) is 1+; with ERα (setting [6]), 1+; in the assay with ERα (setting [7]) it was 2+; with ERα (setting [8]) it was 6+; with ERα (setting [9]) it was 1+; in the assay with ERα (buffer present during binding) it was 7+. Further, the “binding of peptide, Class Specific Fingerprint on ERβ” value is recorded as 1+ in the assay with ERβ (setting [1]); 3+ with ERβ (setting [2]); 1+ with ERβ (setting [3]); 3+ with ERβ (DES present during binding); 2+ with ERβ (setting [4]); 6+ with ERβ (Estriol present during binding). Further, the “binding of peptide, Class Specific Fingerprint on ERβ” value with ERβ (setting [5]) is 2+; with ERβ (setting [6]) it was 4+; with ERβ (setting [7]), 4+; in the assay with ERβ (setting [8]), 6+; with ERβ (setting [9]), 4+; with ERβ (buffer present during binding) it was 7+.
On to “S R T W E S P L G T W E W S R (SRTWESPLGTWEWSR) [#13 ER]”, for which the “binding of peptide … on ERα” value with ERα (setting [1]) is given as 6+; with ERα (setting [2]), 2+; with ERα (setting [3]) it was 5+; with ERα (DES present during binding) it was 3+; in the assay with ERα (setting [4]) it was 2+; with ERα (Estriol present during binding), 2+. Besides, the “binding of peptide … on ERα” value with ERα (setting [5]) is on record as 2+; with ERα (setting [6]), 2+; with ERα (setting [7]), 2+; with ERα (setting [8]), 4+; with ERα (setting [9]), 2+; in the assay with ERα (buffer present during binding), 5+.
Turning to SRDWRSGFLYELLSR [Peptide 4E-β], in the assay with ERα, the “binding activity, ERα and buffer” value is 6+; the “binding activity, ERα and estradiol” value is listed as 5+; the “binding activity, ERα and tamoxifen” value is listed as 6+. Besides, in the assay with ERβ, the “binding activity, ERβ and Estradiol” value was 7+; the “binding activity, ERβ and buffer” value is 5+; the “binding activity, ERβ and tamoxifen” value is on record as 3+.
SRECVGGWCLAELSR [Peptide 18b-β]: in the assay with ERα, the “binding activity, ERα and buffer” value is 2+; the “binding activity, ERα and estradiol” value is given as 2+; the “binding activity, ERα and tamoxifen” value is recorded as 2+. In the assay with ERβ, the “binding activity, ERβ and Estradiol” value was 7+; the “binding activity, ERβ and buffer” value is 7+; the “binding activity, ERβ and tamoxifen” value is 7+.
Take SREGLLMRLLIGDSR [Peptide 14E-β]: in the assay with ERα, the “binding activity, ERα and buffer” value was 5+; the “binding activity, ERα and estradiol” value is 7+; the “binding activity, ERα and tamoxifen” value is listed as 5+. In the assay with ERβ, the “binding activity, ERβ and Estradiol” value is on record as 7+; the “binding activity, ERβ and buffer” value is listed as 5+; the “binding activity, ERβ and tamoxifen” value is given as 2+.
Turning to SREGWMGPWRLADSR [Peptide 12t-β], in the assay with ERα, the “binding activity, ERα and estradiol” value is reported as 1+; the “binding activity, ERα and tamoxifen” value is 1+. Moreover, in the assay with ERβ, the “binding activity, ERβ and Estradiol” value is on record as 7+; the “binding activity, ERβ and buffer” value is reported as 7+; the “binding activity, ERβ and tamoxifen” value is reported as 7+.
With SREWEDGFGGRWLSR [Peptide 4t-β], in the assay with ERα, the “binding activity, ERα and buffer” value is recorded as 2+; the “binding activity, ERα and estradiol” value is 2+; the “binding activity, ERα and tamoxifen” value was 3+. In the assay with ERβ, the “binding activity, ERβ and Estradiol” value is 7+; the “binding activity, ERβ and buffer” value is 7+; the “binding activity, ERβ and tamoxifen” value is reported as 7+.
As for SRHGILWDLLQGDSR [Peptide 2E-β], in the assay with ERα, the “binding activity, ERα and buffer” value is given as 6+; the “binding activity, ERα and estradiol” value is given as 7+; the “binding activity, ERα and tamoxifen” value is recorded as 5+. In addition, in the assay with ERβ, the “binding activity, ERβ and Estradiol” value is 7+; the “binding activity, ERβ and buffer” value is recorded as 4+; the “binding activity, ERβ and tamoxifen” value is on record as 2+.
As to SRLEDLLRGDSKPQSR [Peptide 7E-β], in the assay with ERα, the “binding activity, ERα and buffer” value is given as 4+; the “binding activity, ERα and estradiol” value is recorded as 6+; the “binding activity, ERα and tamoxifen” value is recorded as 3+. Besides, in the assay with ERβ, the “binding activity, ERβ and Estradiol” value is on record as 6+; the “binding activity, ERβ and buffer” value was 5+; the “binding activity, ERβ and tamoxifen” value is recorded as 1+.
SRLEELLRVGVLTSR [Peptide 6E-β]: in the assay with ERα, the “binding activity, ERα and buffer” value was 3+; the “binding activity, ERα and estradiol” value is listed as 5+; the “binding activity, ERα and tamoxifen” value is listed as 3+. In the assay with ERβ, the “binding activity, ERβ and Estradiol” value was 7+; the “binding activity, ERβ and buffer” value was 3+; the “binding activity, ERβ and tamoxifen” value is given as 1+.
Consider SRLHCLLDSSYCSSR [Peptide 1b-β], for which, in the assay with ERα, the “binding activity, ERα and buffer” value is listed as 4+; the “binding activity, ERα and estradiol” value was 7+; the “binding activity, ERα and tamoxifen” value is 3+. Further, in the assay with ERβ, the “binding activity, ERβ and Estradiol” value is 7+; the “binding activity, ERβ and buffer” value is given as 7+; the “binding activity, ERβ and tamoxifen” value is on record as 2+.
With SRLHDLLLRDESPSR [Peptide 3E-β], in the assay with ERα, the “binding activity, ERα and buffer” value is recorded as 4+; the “binding activity, ERα and estradiol” value was 5+; the “binding activity, ERα and tamoxifen” value is reported as 4+. In addition, in the assay with ERβ, the “binding activity, ERβ and Estradiol” value is listed as 6+; the “binding activity, ERβ and buffer” value is on record as 3+; the “binding activity, ERβ and tamoxifen” value is listed as 1+.
Turning to SRLNGVFCHDSSDLWVCSR [Peptide 18t-β], in the assay with ERα, the “binding activity, ERα and buffer” value is 7+; the “binding activity, ERα and estradiol” value is given as 6+; the “binding activity, ERα and tamoxifen” value is on record as 7+. In the assay with ERβ, the “binding activity, ERβ and Estradiol” value was 3+; the “binding activity, ERβ and buffer” value is 6+; the “binding activity, ERβ and tamoxifen” value is given as 7+.
Turning to SRLPPSVFSMCGSEVCLSR [Peptide 9t-β], in the assay with ERα, the “binding activity, ERα and buffer” value was 3+; the “binding activity, ERα and estradiol” value is 3+; the “binding activity, ERα and tamoxifen” value is reported as 6+. Also, in the assay with ERβ, the “binding activity, ERβ and Estradiol” value is on record as 2+; the “binding activity, ERβ and buffer” value is listed as 3+; the “binding activity, ERβ and tamoxifen” value is listed as 7+.
For the substance SRMFQVCGDEVCLRSR [Peptide 16t-β], in the assay with ERα, the “binding activity, ERα and buffer” value is 7+; the “binding activity, ERα and estradiol” value is reported as 6+; the “binding activity, ERα and tamoxifen” value is on record as 7+. Besides, in the assay with ERβ, the “binding activity, ERβ and Estradiol” value was 5+; the “binding activity, ERβ and buffer” value is 7+; the “binding activity, ERβ and tamoxifen” value is recorded as 7+.
On to SRNECIGPWCLTISR [Peptide 13t-β], for which, in the assay with ERα, the “binding activity, ERα and buffer” value is recorded as 3+; the “binding activity, ERα and estradiol” value is listed as 2+; the “binding activity, ERα and tamoxifen” value is on record as 4+. In addition, in the assay with ERβ, the “binding activity, ERβ and Estradiol” value is on record as 7+; the “binding activity, ERβ and buffer” value is 7+; the “binding activity, ERβ and tamoxifen” value was 7+.
